Experimental data taken from patent US20210253734A1.

How the values were obtained:
[1] = target: human Trypsin (Sigma) (human) (UniProt P07477); experiment: cell-based or functional assay
[2] = target: AS-SPIK (Abnormal Secreted serine protease inhibitor Kazal), purified or partially purified from the medium of S2-3 cells (human) (UniProt P00995); experiment: cell-based or functional assay

Work on “AS-SPIK (Abnormal Secreted serine protease inhibitor Kazal), purified or partially purified from the medium of S2-3 cells (from UniProt P00995 24-79)” yielded an inhibition of trypsin digestion of 1 uM BML (Boc-Gln-Ala-Arg-AMC) after 60 minutes, 3 nM AS-SPIK and 2 ng/ml trypsin [1] of 70%.

B1: monoclonal antibody IM-CA22 (antibody, V domains shown)
VH: QIQLQQSGPELVKPGTSVKLSCKASGYTFTDYYINWVKQRPGQGLEWIGWIYPGSGNPIYNENFKDKATLTVDTSSTTAYLQLSSLTSEDSAVYFCAREWGCAMDSWGQGTSVTVSS
VL: DIVMTQSPSSLSVSTGEKVTMSCKSSQSLLNSGNQKNYLAWYQQKPGQSPKLLIYGASTRESGVPDRFTGSGSGTEFTLTISSVQAEDLAVYYCQSDYSHPYTFGGGTKLEIK
With B1 the restoration of Trypsin activity (inhibition of AS-SPIK activity) at 60 minutes, 1 ug/ml IM-CA22 pre-incubated with 3 nM AS-SPIK [2] was > 60%.
